In experiment [1] the target is T1, mouse GPCR135 (Mus musculus, UniProt Q8BGE9).
T1 construct: Mouse GPCR135 coding region was PCR amplified from mouse genomic DNA; expressed in transfected cells; host or cells: COS-7 (ATCC CRL-1651), transient
T1 sequence (Q8BGE9 1-472): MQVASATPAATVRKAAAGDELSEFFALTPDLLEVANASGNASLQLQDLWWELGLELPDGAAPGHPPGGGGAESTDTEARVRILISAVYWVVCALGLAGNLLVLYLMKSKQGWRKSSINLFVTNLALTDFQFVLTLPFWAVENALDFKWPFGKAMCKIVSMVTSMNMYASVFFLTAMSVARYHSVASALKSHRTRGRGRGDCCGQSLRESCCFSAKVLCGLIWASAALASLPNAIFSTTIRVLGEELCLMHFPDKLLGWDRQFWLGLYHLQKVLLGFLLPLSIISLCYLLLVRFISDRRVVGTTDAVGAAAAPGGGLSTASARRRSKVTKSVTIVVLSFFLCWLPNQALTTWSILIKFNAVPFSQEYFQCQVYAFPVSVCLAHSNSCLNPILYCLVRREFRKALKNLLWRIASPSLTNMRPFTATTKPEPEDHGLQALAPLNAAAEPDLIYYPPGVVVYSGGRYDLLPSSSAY
Nature of the experiment: Radioligand binding assay in transfected COS-7 cells. Conditions: COS-7 cells transfected with mouse GPCR135; competitor 1 μM unlabeled relaxin3. How it is done:
(§1) COS7 cells, either untransfected (NC) or transfected with pcDNA3.1 (the vector control), human GPCR135 (hGPCR135), mouse GPCR135 (mGPCR135), rat GPCR135 long form (rGPCR135L), and rat GPCR135 short form (rGPCR135s) respectively, were used for binding assays using ^125I-labeled human relaxin3 either in the present (“Competition”) or absence (“Total Binding”) of 1 µM of unlabeled human relaxin3 as the competitor.
(§2) COS-7 cells in 6-well tissue culture plates were transfected by GPCR135 expressing plasmid using LipofectAmine. Two days after transfection, cells were washed with binding buffer: DMEM plus 50 mM Hepes, pH 7.2 and 1% BSA. ^125I-label human relaxin3 was added to each well in 1 ml of binding buffer at presence or absence 1 μM of unlabeled relaxin as competitor. The binding assays were carried out at room temperature for one hour and the unbound ligand was washed away by ice-cold PBS. The bound ^125I-relaxin3 was counted in a gamma counter.

In experiment [2] the target is T2, GPCR135 (Homo sapiens, UniProt Q9NSD7).
T2 sequence (Q9NSD7 1-469): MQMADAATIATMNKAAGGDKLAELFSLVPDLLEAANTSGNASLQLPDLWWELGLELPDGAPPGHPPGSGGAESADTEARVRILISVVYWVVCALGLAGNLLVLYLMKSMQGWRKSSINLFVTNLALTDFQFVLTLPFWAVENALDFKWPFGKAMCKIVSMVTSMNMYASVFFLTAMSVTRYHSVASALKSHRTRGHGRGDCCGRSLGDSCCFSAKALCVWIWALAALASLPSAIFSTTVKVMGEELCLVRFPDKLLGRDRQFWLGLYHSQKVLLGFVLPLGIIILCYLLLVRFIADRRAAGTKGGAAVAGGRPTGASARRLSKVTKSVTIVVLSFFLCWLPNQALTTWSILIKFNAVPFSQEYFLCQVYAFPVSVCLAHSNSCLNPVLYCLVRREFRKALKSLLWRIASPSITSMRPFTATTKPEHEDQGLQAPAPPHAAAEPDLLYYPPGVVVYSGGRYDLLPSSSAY
The description is as above. Conditions: COS-7 cells transfected with human GPCR135; competitor 1 μM unlabeled relaxin3. How it is done: as §1, §2

In experiment [3] the test system is rat GPCR135. The description is as above. The note with it: COS-7 cells transfected with rat GPCR135 (long and short form); competitor 1 μM unlabeled relaxin3. The protocol: as §1, §2
For experiment [4], the target named is T2, GPCR135. Briefly: Intracellular cAMP accumulation assay in CHO-K1 cells. The class given is cell-based. The arrangement: primers complementary to the putative translation start and stop sites of the GPCR135 open reading frame; expressed in transfected cells; host or cells: CHO-K1 (transient, pCIneo vector); isolated cell membranes. The protocol:
CHO-K1 cells stably expressing human GPCR135 (GPCR135) and un-transfected CHO-K1 cells (Control) were used for cAMP accumulation assays. Cells were treated with different stimulants as indicated. cAMP accumulated in the cells was extracted by HCl and the concentration of cAMP was measured by a ELISA kit (NEN) using ^125I-labeled cAMP and Flash plates.
CHO-K1 cells stably expressing human GPCR135 were established by transfection of GPCR135 expressing plasmid into CHO-K1 (ATCC# CCL-61) cells and culturing the transfected cells under selection of G418 (400 mg/L). The receptor expressing cells were seeded in 96-well plates at a cell density of 30,000 cells/well. Twenty-four hours later, cell culture medium was replaced with DMEM-F12 plus 2 mM IBMX (sigma). A different test compound for cAMP stimulation was added to each well. The reactions were incubated at room temperature for 20 min. Twenty micro-liters of 0.5 N HCl was added to each well to stop the reaction and extract the accumulated cAMP. The cAMP concentration was measured using a cAMP ELISA kit (NEN).
In general terms: Cyclic AMP is a second messenger, typically raised through Gs and lowered through Gi signalling.

For experiment [5], the target named is T2, GPCR135. Nature of the experiment: GTPγS binding assay with GPCR135 expressing cell membranes. The class given is biochemical. The arrangement: primers complementary to the putative translation start and stop sites of the GPCR135 open reading frame; expressed in transfected cells; host or cells: CHO-K1 (transient, pCIneo vector); isolated cell membranes. Conditions: GPCR135 expressing cell membrane. How it is done: Frozen rat brains (5 g) were homogenized at −30° C. in 40 ml ethanol/HCl (ethanol to 0.8M HCl ratio at 3:1). The homogenate was extracted at 4° C. for 2 hr and then centrifuged at 4° C. at 20,000 g for 30 min. The supernatant was loaded onto a 2 ml SP-Sephadex C-25 column (Amersham), washed with 1 M acetic acid and eluted with 2 M pyridine and 1 M acetic acid. The eluted fraction was loaded onto a 6 ml C-18 BondElut column, washed with 0.1% TFA and eluted with 60% acetonitrile and 0.1% TFA. The eluted peptides were lyophilized, reconstituted in water, and tested for GPCR135 ligand activity using GTPγS binding assay as described in Example 5.
The expression vector was transfected into COS-7 cells using LipofectAmine (Invitrogen). Three days after the transfection, the supernatants of the transfected cells were collected, the pH was adjusted to 3.0 and loaded onto a Sephadex C-25 cation exchange column. The column was washed with 1 M acetic acid and eluted with 2 M pyridine and 1 M acetic acid. The eluted proteins were loaded on a C-18 BondElut column, washed with 0.1% TFA, and eluted with 60% acetonitrile and 0.1% TFA. […]
GPCR135 expression vector was transfected into CHO-K1 cells using Lipofectamine (Invitrogen). […] Microscint-40 (Packard) was added to each well and the plate was counted on a top counter (TopCount NTX, Packard).
On the technique in general: GTPγS resists hydrolysis and so accumulates on activated G proteins.

For experiment [6], the target named is T2, GPCR135. Briefly: Ca2+ mobilization assay (FLIPR) in HEK293 cells co-expressing GPCR135 and Gqi5. On the set-up: primers complementary to the putative translation start and stop sites of the GPCR135 open reading frame; expressed in transfected cells; host or cells: HEK293 (ATCC CRL-1573), transient co-transfection with Gqi5. Format: cell-based. How it is done: Using LipofectAmine, human embryonic kidney (HEK) 293 cells were co-transfected with a plasmid expressing GPCR135 receptor and a plasmid expressing Gqi5, a mutant G-protein that translates the activation of GPCR135 into an increased intracellular Ca^2+, or increased Ca^2+ mobilization (Conklin et al., 1993, Nature 363: 274-276). Two days after transfection, cells were detached with PBS plus 10 mM EDTA, pH 8.0. The detached cells were washed with DMEM-F12 medium (without phenol red, Invitrogen) and seeded in black poly-D lysine coated 96-well plates at a cell density of 50,000 cell/well. Calcium dye, Fluo-3 (AM) (TEFLABS, Austin, Tex.) was loaded into the cells and ligand stimulated calcium mobilization was monitored using FLIPR (Molecular Device).
HEK293 cells, untransfected (293 Control) or transfected by Gqi5 (293/Gqi5) alone or human GPCR135 (GPCR135) alone, or co-transfected by human GPCR135 and Gqi5 (GPCR135/Gqi5), were used for Ca^2+ mobilization assays under stimulation of relaxin3 as the ligand. Ligand-stimulated intracellular mobilization was monitored using FLIPR.
(In general: Calcium assays in cells follow changes in intracellular calcium, usually with a dye or a luminescent sensor.)

Experiment [7] has as its target T3, LGR7 (Homo sapiens, UniProt Q9HBX9).
T3 sequence (Q9HBX9 1-757): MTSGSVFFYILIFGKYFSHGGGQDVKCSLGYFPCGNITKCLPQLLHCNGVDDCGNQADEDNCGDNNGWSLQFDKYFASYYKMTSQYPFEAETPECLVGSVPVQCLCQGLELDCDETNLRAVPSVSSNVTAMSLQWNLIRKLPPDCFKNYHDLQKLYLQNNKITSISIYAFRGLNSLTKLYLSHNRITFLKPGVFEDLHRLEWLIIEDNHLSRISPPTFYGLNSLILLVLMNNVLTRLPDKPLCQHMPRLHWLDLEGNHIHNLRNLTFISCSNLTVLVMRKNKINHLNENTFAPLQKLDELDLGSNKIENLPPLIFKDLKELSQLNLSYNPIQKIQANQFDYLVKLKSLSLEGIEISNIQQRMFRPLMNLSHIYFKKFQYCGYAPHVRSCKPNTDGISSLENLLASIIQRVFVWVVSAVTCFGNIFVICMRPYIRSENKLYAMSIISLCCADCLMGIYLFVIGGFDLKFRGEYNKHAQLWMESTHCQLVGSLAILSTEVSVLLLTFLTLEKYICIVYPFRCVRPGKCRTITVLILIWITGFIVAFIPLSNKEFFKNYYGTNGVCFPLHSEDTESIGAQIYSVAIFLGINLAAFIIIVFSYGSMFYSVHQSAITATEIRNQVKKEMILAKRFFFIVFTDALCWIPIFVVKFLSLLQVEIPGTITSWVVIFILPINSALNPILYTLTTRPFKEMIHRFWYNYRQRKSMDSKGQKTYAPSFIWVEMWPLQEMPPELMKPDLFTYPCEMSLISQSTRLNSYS
The note with it: cited from earlier work.

The target in experiment [8] is T2, GPCR135. The note with it: transient expression in Cos-1 cells; cited from earlier work.

Sequence of rat GPCR135 (as listed by the source): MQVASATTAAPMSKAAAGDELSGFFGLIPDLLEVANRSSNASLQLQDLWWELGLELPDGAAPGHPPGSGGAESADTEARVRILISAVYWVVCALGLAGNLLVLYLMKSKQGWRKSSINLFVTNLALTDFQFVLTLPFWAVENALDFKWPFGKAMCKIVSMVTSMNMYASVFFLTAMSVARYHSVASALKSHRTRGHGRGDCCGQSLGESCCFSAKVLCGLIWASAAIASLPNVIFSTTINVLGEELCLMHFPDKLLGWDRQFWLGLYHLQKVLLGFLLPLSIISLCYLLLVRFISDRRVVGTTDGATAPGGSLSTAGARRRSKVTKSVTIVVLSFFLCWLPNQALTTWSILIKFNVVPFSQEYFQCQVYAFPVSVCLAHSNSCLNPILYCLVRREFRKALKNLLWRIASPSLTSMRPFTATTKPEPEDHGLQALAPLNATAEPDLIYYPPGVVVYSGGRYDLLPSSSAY

Regarding “^125I-relaxin3: human relaxin3 labeled with iodine-125, used as radioligand”, the “specific binding to GPCR135” value in experiment [1], in experiment [2] and in experiment [3] was “specifically binds” each time.

With `C=C[C@@]1(C)CC(=O)[C@]2(O)[C@@]3(C)[C@@H](O)CCC(C)(C)[C@@H]3[C@H](O)[C@H](OC(C)=O)[C@@]2(C)O1` [forskalin, reference compound], the “intracellular concentration of cAMP” value in experiment [4] (in the absence of GPCR135) and in experiment [4] (in the presence of GPCR135) was “increases” in each case.

On to “relaxin3: secreted protein consisting of relaxin3 polypeptide chains A and B linked by disulfide bridges; recombinant human, natural ligand of GPCR135”, for which the “forskalin-stimulated cAMP accumulation” value in experiment [4] (cells expressing GPCR135) was “inhibits”. In experiment [4] (in the presence of GPCR135), the “intracellular concentration of cAMP” value is listed as “decreases”. In experiment [5], the “stimulation of GTPγS binding” value was “potently stimulated”. Also, the “Ca2+ mobilization” value in experiment [6] is given as “stimulates”. For the same compound, the “activation of LGR7” value in experiment [7] is “activates”.

In the case of “angiotensin II (DRVYIHPF; Angiotensin-2; UniProt P01019 25-32, looked up)”, in experiment [8], the “binding sites on GPCR135” value is recorded as “did not produce any binding sites”.
